Experimental findings from patent US20060270596A1 (CENTRE NATIONAL DE LA RECHERCHE SCIENTIFIQUE CNRS, published 2006) are described below.

Test [1] has as its target T1, human THAP3, full length (human, UniProt Q8WTV1 1-239).
T1 construct: Two-hybrid fusion or 35S-labelled in vitro translation product
T1 sequence: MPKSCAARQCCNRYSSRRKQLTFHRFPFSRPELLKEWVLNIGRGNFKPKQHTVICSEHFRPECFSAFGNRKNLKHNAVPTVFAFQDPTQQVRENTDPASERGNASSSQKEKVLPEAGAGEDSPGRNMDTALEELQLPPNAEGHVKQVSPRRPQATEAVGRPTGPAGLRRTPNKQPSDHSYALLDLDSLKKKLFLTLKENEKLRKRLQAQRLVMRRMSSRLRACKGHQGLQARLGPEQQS
Put plainly: yeast two-hybrid, Par4DD bait.

The target of test [2] is T2, human THAP2, full length (human, UniProt Q9H0W7 1-228).
T2 construct: Two-hybrid fusion or 35S-labelled in vitro translation product
T2 sequence (Q9H0W7 whole entry, the tested form may be a part): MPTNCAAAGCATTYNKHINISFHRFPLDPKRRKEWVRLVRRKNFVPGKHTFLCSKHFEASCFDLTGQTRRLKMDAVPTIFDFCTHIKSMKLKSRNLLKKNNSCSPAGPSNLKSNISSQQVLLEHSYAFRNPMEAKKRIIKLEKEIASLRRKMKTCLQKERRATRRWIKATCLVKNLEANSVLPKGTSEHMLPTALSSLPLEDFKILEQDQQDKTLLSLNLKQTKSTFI
Put plainly: yeast two-hybrid, Par4DD bait.

Test [3] addresses T3, THAP1-N3 deletion mutant (amino acids 1-192) (human, UniProt Q9NVV9 1-192).
T3 construct: Gal4 fusion, in vitro translation product or GFP fusion according to assay
T3 sequence: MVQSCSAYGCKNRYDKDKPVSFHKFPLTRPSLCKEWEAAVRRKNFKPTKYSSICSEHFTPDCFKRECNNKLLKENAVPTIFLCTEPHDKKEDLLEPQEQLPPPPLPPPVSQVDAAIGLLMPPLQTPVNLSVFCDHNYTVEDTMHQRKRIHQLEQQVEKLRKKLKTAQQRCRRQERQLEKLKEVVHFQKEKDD
Put plainly: in vivo interaction test: GFP-THAP1 mutant and myc-Par4DD co-expressed in primary human endothelial cells, confocal immunofluorescence. An excerpt: (§1) To provide further evidence for a physiological interaction between THAP1 and Par4 in vivo interactions between THAP1 and PAR4 were investigated. For that purpose, confocal immunofluorescence microscopy was used to analyze the subcellular localization of epitope-tagged Par4DD in primary human endothelial cells transiently cotransfected with pEF-mycPar4DD eukaryotic expression vector and GFP or GFP-THAP1 expression vectors (pEGFP.C2 and pEGFP.C2-THAP1, respectively). To generate pEF-mycPar4DD, mycPar4DD (amino acids 250-342) was amplified by PCR using pGBKT7-Par4DD as template, with primers myc.BD7 (5′-[…]-3′) (SEQ ID NO: 195) and Par4.9 (5′-[…]-3′) (SEQ ID NO: 196), and cloned into the XbaI and NotI sites of the pEF-BOS expression vector (Mizushima and Nagata, Nucleic Acids Research, 18:5322, 1990). Primary human endothelial cells from umbilical vein (HUVEC, PromoCell, Heidelberg, Germany) were grown in complete ECGM medium (PromoCell, Heidelberg, Germany), plated on coverslips and transiently transfected in RPMI medium using GeneJammer transfection reagent according to manufacturer instructions (Stratagene, La Jolla, Calif., USA). Cells co-transfected with pEF-mycPar4DD and GFP-tagged expression constructs were allowed to grow for 24 h to 48 h on coverslips. Cells were washed twice with PBS, fixed for 15 min at room temperature in PBS containing 3.7% formaldehyde, and washed again with PBS prior to neutralization with 50 mM NH₄Cl in PBS for 5 min at room temperature. Following one more PBS wash, cells were permeabilized 5 min at room temperature in PBS containing 0.1% Triton-X100, and washed again with PBS. Permeabilized cells were then blocked with PBS-BSA (PBS with 1% bovine serum albumin) for 10′ and then incubated 2 hr at room temperature with mouse monoclonal antibody anti-myc epitope (mouse IgG1, 1/200, Clontech) diluted in PBS-BSA. Cells were then washed three times 5 min at room temperature in PBS-BSA, and incubated for 1 hr with Cy3 (red fluorescence)-conjugated goat anti-mouse (1/1000, Amersham Pharmacia Biotech) secondary antibodies, diluted in PBS-BSA. After extensive washing in PBS, samples were air dried and mounted in Mowiol. Images were collected on a Leica confocal laser scanning microscope.

The target in test [4] is T4, THAP1-C3 deletion mutant (amino acids 143-213) (human, UniProt Q9NVV9 143-213).
T4 construct: Gal4 fusion, in vitro translation product or GFP fusion according to assay
T4 sequence: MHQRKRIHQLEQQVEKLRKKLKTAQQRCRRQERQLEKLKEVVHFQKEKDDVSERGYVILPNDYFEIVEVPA
Described as above.
Description: as §1

The target of test [5] is T5, THAP1-C1 deletion mutant (amino acids 90-213) (human, UniProt Q9NVV9 90-213).
T5 construct: Gal4 fusion, in vitro translation product or GFP fusion according to assay; also called THAP1-CL; THAP1ΔTHAP
T5 sequence: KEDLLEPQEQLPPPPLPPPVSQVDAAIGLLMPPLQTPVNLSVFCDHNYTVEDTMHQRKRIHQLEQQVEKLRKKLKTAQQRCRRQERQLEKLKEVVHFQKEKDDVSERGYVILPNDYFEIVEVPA
The description is as above.
Description: as §1

Test [6] deals with T6, THAP1-N2 deletion mutant (amino acids 1-166) (human, UniProt Q9NVV9 1-166).
T6 construct: Gal4 fusion, in vitro translation product or GFP fusion according to assay
T6 sequence: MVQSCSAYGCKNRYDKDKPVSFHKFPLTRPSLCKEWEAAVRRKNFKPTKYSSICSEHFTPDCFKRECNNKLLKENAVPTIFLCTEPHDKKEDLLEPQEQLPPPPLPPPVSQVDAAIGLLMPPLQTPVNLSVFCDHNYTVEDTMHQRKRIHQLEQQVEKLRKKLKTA
The test is described as above.
Description: as §1

In test [7] the target is T7, THAP1-N1 deletion mutant (amino acids 1-90) (human, UniProt Q9NVV9 1-90).
T7 construct: Gal4 fusion, in vitro translation product or GFP fusion according to assay; also called zinc finger domain of THAP1
T7 sequence: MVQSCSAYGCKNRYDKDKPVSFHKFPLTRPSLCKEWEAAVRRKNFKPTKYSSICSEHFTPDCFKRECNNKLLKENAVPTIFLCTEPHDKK
The test is described as above.
Description: as §1

Test [8] addresses T8, THAP1-C2 deletion mutant (amino acids 120-213) (human, UniProt Q9NVV9 120-213).
T8 construct: Gal4 fusion, in vitro translation product or GFP fusion according to assay
T8 sequence: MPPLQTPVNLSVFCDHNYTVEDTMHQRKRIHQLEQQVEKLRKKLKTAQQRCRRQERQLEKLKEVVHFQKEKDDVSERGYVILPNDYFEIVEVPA
The test is described as above.
Description: as §1

B1: Par4 leucine zipper/death domain (Par4DD, amino acids 250-342) (other)
chain: GFPRYNRDANVSGTLVSSSTLEKKIEDLEKEVVTERQENLRLVRLMQDKEEMIGKLKEEIDLLNRDLDDIEDENEQLKQENKTLLKVVGQLTR
notes: Gal4 fusion in two-hybrid; also called myc-Par4DD
In the case of B1, the binding result in test [1] is “binds”; in test [2], “binds”; in test [3] it was “binds”; in test [4] it was “binds”; in test [5], “binds”; in test [6], “no binding”. The values for the binding result in test [7] and in test [8] were “no binding” and “binds”, respectively.
